From PMC5464003

Experiments:
GST-F28F8.5 (C. elegans) [1] = target: GST-F28F8.5 (C. elegans) (UniProt H9G301); assay: pull-down; GST-F28F8.5 or GST adsorbed in equal amounts on glutathione-agarose, incubated with 35S-MDT-6 from rabbit reticulocyte lysate; bound fraction resolved by PAGE, autoradiography, excised bands counted by scintillation
GST-F28F8.5 (C. elegans) [2] = target: GST-F28F8.5 (C. elegans) (UniProt H9G301); assay: pull-down; GST-F28F8.5 or GST adsorbed in equal amounts on glutathione-agarose, incubated with His6-MDT-30-FLAG purified on a nickel column; Western blot with anti-FLAG M2, densitometry (ImageJ)

| fold enrichment over GST alone (GST-F28F8.5 (C. elegans) [1]) | fold enrichment over GST alone (GST-F28F8.5 (C. elegans) [2]) | Binder |
| --- | --- | --- |
| 7.7 fold | – | 35S-Methionine-MDT-6 (natural protein, 35S-methionine label) MMPRMGPPAAARQDNPLHVSFRNPQWPPNFINKDNVLDYFCNQANAFYEMNSCNQQIRMQNIVNRTVEECLRTMPGIQYVLWYSQPPLFIICKQRRNNVTNVSPIAYYYVINGSVHQAPDMYSLVQSRLLGALEPLRNAFGEVTNYSRYNTAKGYYWEFKNKPNVKKREEEKKEDEEEKLEDRSTNFQKTRTMMLLNQLFSEMPAEDALEREEKEEVEEEEEETLKTEEPTTSTDEPKFAEPTARTTSKQ |
| – | 2.5 fold | His6-MDT-30-FLAG (natural protein) MNPNQPPNYPPGNPNQPPPFPPTPYYPMYQAGMPMPYIPQSPQYPQPGPPGGPPPFMGIQIKQEPMWSQENRYGMQAGPSGMPGMPPSSHPYGYPPMHGMPPGMPQGMPPMMDPNMPDFSSPPMHHPTTSLLAQHLSSAPLPPAPPQQQSHLSQLLQQPTTYSTATNPHAAPTQTIARRPDNEARNAQLQEQELAARQQQQQEYMLQQHQQQQQNRAGQLQAEQAFANPPTVSIPPQTGHPPQQTSASSQQRAQETMAQQTEPQSHIRESPQKETNLEKYSTGELCLYGRELVNDLNVKTSYLSTILKKVMERKPLNQGENPNDLADQCKNALQRMSDIRQIIEKRREPTWKRMTGEDYIELMLDDSELKKPMDEERQKRRAELEQRFAIVISKTPPVEGHIWYQGKWISEELHKKYMQFEANKEIVKNLAAELKALAWKIDVTSPGHLKKVDQTKISKKKTDDQV |
